The results in this text go back to US8097440B1, “Engineered microorganisms capable of producing target compounds under anaerobic conditions” (Gevo, Inc., priority 2008, dated 2012).

In data set [1] the test system is CC(C)C=O. Briefly: cells, lysate or membranes. The conditions noted are these: conversion to isobutanol.
Substrate in data set [2]: CC(C)C=O
Briefly: Alcohol dehydrogenase kinetic assay, Dm_Adh. The conditions noted are these: conversion to isobutanol. In kind it is biochemical, Drosophila melanogaster. On the procedure:
(§1) E. coli strain GEVO1745 was transformed by electroporation with one of plasmids pGV1705-A, pGV1748-A, pGV1749-A, or pGV1778-A. 50 mL of TB medium (23.1 g/L KH2PO4, 125.4 g/L K2HPO4, 12 g/L Bacto-tryptone, 24 g/L yeast extract, 4 ml/L glycerol) were inoculated to an initial OD600 of 0.2 using a 3 mL overnight LB culture of a single colony. The 50 mL culture was allowed to grow for 3-4 hrs at 250 rpm and 37° C. Protein expression was induced at an OD600 of 2-2.5 by the addition of IPTG to a final concentration of 1 mM. After the addition of IPTG, protein expression was allowed to continue for 20-24 hours at 225 rpm and 25° C.
(§2) Alcohol dehydrogenase (ADH) activity was assayed kinetically by monitoring the decrease in NAD(P)H concentration by measuring the absorbance at 340 nm. A reaction buffer was prepared containing 0.1 M potassium phosphate, 0.4 mM NAD(P)H, 10 mM isobutyraldehyde, 1 mM DTT, and 1 mM PMSF. Cell pellets were resuspended in 0.1 M potassium phosphate buffer containing 1 mM DTT and 1 mM PMSF at one fifth of the culture volume, i.e. 10 mL resuspension buffer for cell pellet from a 50 mL culture. The resuspended cells were lysed by sonication for 1 min with a 50% duty cycle. The reaction was initiated by the addition of 0.5 mL of the reaction buffer to 0.5 mL of clarified lysate in a cuvette. […]

Substrate in data set [3]: NC(=O)C1=CN([C@@H]2O[C@H](COP(=O)(O)OP(=O)(O)OC[C@H]3O[C@@H](n4cnc5c(N)ncnc54)[C@H](O)[C@@H]3O)[C@@H](O)[C@H]2O)C=CC1
Briefly: KARI assay, purified Ec_IlvC^P2D1-A1-his6. The class given is biochemical, E. coli. The conditions noted are these: other: expressed in yeast GEVO1186, purified; 30.0 °C. The protocol: (§3) KARI cuvette assay: KARI activity was assayed kinetically by monitoring the decrease in NAD(P)H concentration by measuring the absorbance at 340 nm. A reaction buffer was prepared containing 250 mM potassium phosphate pH 7, 1 mM DTT and 10 mM MgCl2. Cell pellets were resuspended (0.25 g wet weight/mL buffer) in 250 mM potassium phosphate (KPi) buffer containing 1 mM DTT and 10 mM MgCl2. The resuspended cells were lysed by sonication for 1 min with a 50% duty cycle and pelleted at 11000×g and 4° C. for 15 min. A reaction mixture consisting of 910 μl reaction buffer, 50 μl acetolactate, and 20 μl lysate was prepared in a cuvette. The reaction was initiated by addition of 20 μL of 10 mM NAD(P)H. A substrate free control was conducted using reaction buffer without the addition of acetolactate.
(§4) Purification of KARI: Cell pellets used for purification were resuspended in purification buffer A (20 mM Tris, 20 mM imidazol, 100 mM NaCl, 10 mM MgCl2, pH 7.4). KARI was purified by IMAC (Immobilized metal affinity chromatography) over a 1 ml Histrap High Performance (histrap HP) column pre-charged with Nickel (GE Healthcare) using an Akta FPLC system (GE Healthcare). The column was equilibrated with four column volumes (cv) of buffer A. After injecting the crude extract, the column was washed with buffer A for 2 cv, followed by a wash step with a mixture of 10% elution buffer B (20 mM Tris, 300 mM imidazol, 100 mM NaCl, 10 mM MgCl2, pH 7.4) for 5 cv. KARI variants were eluted at 40% buffer B and stored at 4° C.
Improved variants were expressed and purified from GEVO1186. 20 mL SC-URA medium overnight cultures were grown at 30° C. and 250 rpm in 250 mL flasks and were then used to inoculate 96 well deep well plates on the next morning. 50 μL of the overnight cultures were transferred into 600 μL SC-URA medium per well. The plates were then grown at 30° C. and 250 rpm in a humidified plate shaker for 8 h. In order to the harvest, the cultures were transferred into 50 mL Falcon tubes and then spun down at 4° C. and 5,000 rpm for 10 min. […]

Substrate in data set [4]: NC(=O)C1=CN([C@@H]2O[C@H](COP(=O)(O)OP(=O)(O)OC[C@H]3O[C@@H](n4cnc5c(N)ncnc54)[C@H](O)[C@@H]3O)[C@@H](O)[C@H]2O)C=CC1
Briefly: KARI assay, purified Ec_IlvC^P2D1-his6. The conditions noted are these: other: expressed in yeast GEVO1186, purified; 30.0 °C. In kind it is biochemical, E. coli. On the procedure: as §3, §4
(§5) Improved variants were expressed and purified from GEVO1186. 20 mL SC-URA medium overnight cultures were grown at 30° C. and 250 rpm in 250 mL flasks and were then used to inoculate 96 well deep well plates on the next morning. 50 μL of the overnight cultures were transferred into 600 μL SC-URA medium per well. The plates were then grown at 30° C. and 250 rpm in a humidified plate shaker for 8 h. In order to the harvest, the cultures were transferred into 50 mL Falcon tubes and then spun down at 4° C. and 5,000 rpm for 10 min. The pellets were frozen until they were processed and purified as described in Example 14 above.
(§6) Results: Two rounds of error-prone PCR and screening were carried out. The libraries (˜2400 clones per library) were screened using the KARI high-throughput assay. […] In the first round variant Ec_llvC^P2D1-his6 (SEQ ID NO: 38), encoded by Ec_ilvC_coSc^P2D1-his6 (SEQ ID NO: 37) was identified carrying the following mutations: D146G and G185R. This variant served as parent for the second round of error-prone PCR and screening which yielded variant Ec_llvC^P2D1-A1-his6 (SEQ ID NO: 42), encoded by Ec_ilvC_coSc^P2D1-A1-his6 (SEQ ID NO: 41) with one additional mutation (K433E). A two-fold improvement of the specific activity in lysate and in the purified enzyme was observed after two rounds of error-prone PCR.

Substrate in data set [5]: NC(=O)C1=CN([C@@H]2O[C@H](COP(=O)(O)OP(=O)(O)OC[C@H]3O[C@@H](n4cnc5c(N)ncnc54)[C@H](OP(=O)(O)O)[C@@H]3O)[C@@H](O)[C@H]2O)C=CC1
As to the kind of experiment: KARI assay, purified Ec_IlvC^P2D1-his6. The note with it: other: expressed in yeast GEVO1186, purified; 30.0 °C. The class given is biochemical, E. coli. On the procedure:
as §3, §4, §5, §6

Substrate in data set [6]: CC(C)C=O
As to the kind of experiment: Alcohol dehydrogenase kinetic assay, Ec_FucO. The class given is biochemical, E. coli. The conditions noted are these: conversion to isobutanol. The protocol: as §1, §2

Substrate in data set [7]: NC(=O)C1=CN([C@@H]2O[C@H](COP(=O)(O)OP(=O)(O)OC[C@H]3O[C@@H](n4cnc5c(N)ncnc54)[C@H](O)[C@@H]3O)[C@@H](O)[C@H]2O)C=CC1
As to the kind of experiment: KARI cuvette assay, purified Ec_IlvC^Q110V-his6. In kind it is biochemical, E. coli. On the procedure: as §3
Purification of KARI: Cell pellets used for purification were resuspended in purification buffer A (20 mM Tris, 20 mM imidazol, 100 mM NaCl, 10 mM MgCl2, pH 7.4). KARI was purified by IMAC (Immobilized metal affinity chromatography) over a 1 ml Histrap High Performance (histrap HP) column pre-charged with Nickel (GE Healthcare) using an Akta FPLC system (GE Healthcare). […]

In the case of “Klebsiella pneumoniae propanediol dehydrogenase Kp_DhaT, SEQ ID NO: 63 (Klebsiella pneumoniae)”, the Km (as a rule, the substrate concentration at which the rate is half of its maximum) in data set [1] (other: NADH as cofactor) amounted to 1300 µM; in data set [1] (other: NADPH as cofactor), 600 µM.

B1: Drosophila melanogaster alcohol dehydrogenase Dm_Adh, SEQ ID NO: 61 (Drosophila melanogaster) (protein)
chain: MSFTLTNKNVIFVAGLGGIGLDTSKELLKRDLKNLVILDRIENPAAIAELKAINPKVTVTFYPYDVTVPIAETTKLLKTIFAQLKTVDVLINGAGILDDHQIERTIAVNYTGLVNTTTAILDFWDKRKGGPGGIICNIGSVTGFNAIYQVPVYSGTKAAVVNFTSSLAKLAPITGVTAYTVNPGITRTTLVHTFNSWLDVEPQVAEKLLAHPTQPSLACAENFVKAIELNQNGAIWKLDLGTLEAIQWTKHWDSGI
notes: clarified crude lysate
In the case of B1, the Km stood at 900 µM in data set [2] (other: NADH as cofactor) and 2700 µM in data set [2] (other: NADPH as cofactor).

B2: E. coli KARI Ec_IlvC variant Ec_IlvC^P2D1-A1-his6 (Ec_IlvC^P2D1-his6 with K433E), SEQ ID NO: 42 (Escherichia coli K-12; A71S/D146G/G185R/K433E/Q110V/R76D/S78D) (protein)
chain: MANYFNTLNLRQQLAQLGKCRFMGRDEFADGASYLQGKKVVIVGCGAQGLNQGLNMRDSGLDISYALRKESIAEKDADWRKATENGFKVGTYEELIPQADLVINLTPDKVHSDVVRTVQPLMKDGAALGYSHGFNIVEVGEQIRKGITVVMVAPKCPGTEVREEYKRGFGVPTLIAVHPENDPKREGMAIAKAWAAATGGHRAGVLESSFVAEVKSDLMGEQTILCGMLQAGSLLCFDKLVEEGTDPAYAEKLIQFGWETITEALKQGGITLMMDRLSNPAKLRAYALSEQLKEIMAPLFQKHMDDIISGEFSSGMMADWANDDKKLLTWREETGKTAFETAPQYEGKIGEQEYFDKGVLMIAMVKAGVELAFETMVDSGIIEESAYYESLHELPLIANTIARKRLYEMNVVISDTAEYGNYLFSYACVPLLEPFMAELQPGDLGKAIPEGAVDNGQLRDVNEAIRSHAIEQVGKKLRGYMTDMKRIAVAGHHHHHH
Take B2: in data set [3], the Km was 26 µM; the kcat (in general, the maximal rate divided by the concentration of active sites) came out at 4.3 s⁻¹; the kcat/Km was 167,687 M^−1 * S^−1.

B3: E. coli KARI Ec_IlvC variant Ec_IlvC^P2D1-his6 (Ec_IlvC^6E6-his6 with D146G and G185R), SEQ ID NO: 38 (Escherichia coli K-12; A71S/D146G/G185R/Q110V/R76D/S78D) (protein)
chain: MANYFNTLNLRQQLAQLGKCRFMGRDEFADGASYLQGKKVVIVGCGAQGLNQGLNMRDSGLDISYALRKESIAEKDADWRKATENGFKVGTYEELIPQADLVINLTPDKVHSDVVRTVQPLMKDGAALGYSHGFNIVEVGEQIRKGITVVMVAPKCPGTEVREEYKRGFGVPTLIAVHPENDPKREGMAIAKAWAAATGGHRAGVLESSFVAEVKSDLMGEQTILCGMLQAGSLLCFDKLVEEGTDPAYAEKLIQFGWETITEALKQGGITLMMDRLSNPAKLRAYALSEQLKEIMAPLFQKHMDDIISGEFSSGMMADWANDDKKLLTWREETGKTAFETAPQYEGKIGEQEYFDKGVLMIAMVKAGVELAFETMVDSGIIEESAYYESLHELPLIANTIARKRLYEMNVVISDTAEYGNYLFSYACVPLLKPFMAELQPGDLGKAIPEGAVDNGQLRDVNEAIRSHAIEQVGKKLRGYMTDMKRIAVAGHHHHHH
For B3, in data set [4], the Km turned out to be 40 µM, the kcat came to 3.3 s⁻¹ and the kcat/Km was 82,650 M^−1 * S^−1. In addition, in data set [5], the Km was 1432 µM, the kcat was determined as 0.54 s⁻¹ and the kcat/Km was 377 M^−1 * S^−1.

B4: Escherichia coli propanediol dehydrogenase Ec_FucO, SEQ ID NO: 65 (Escherichia coli K-12) (protein)
chain: MMANRMILNETAWFGRGAVGALTDEVKRRGYQKALIVTDKTLVQCGVVAKVTDKMDAAGLAWAIYDGVVPNPTITVVKEGLGVFQNSGADYLIAIGGGSPQDTCKAIGIISNNPEFADVRSLEGLSPTNKPSVPILAIPTTAGTAAEVTINYVITDEEKRRKFVCVDPHDIPQVAFIDADMMDGMPPALKAATGVDALTHAIEGYITRGAWALTDALHIKAIEIIAGALRGSVAGDKDAGEEMALGQYVAGMGFSNVGLGLVHGMAHPLGAFYNTPHGVANAILLPHVMRYNADFTGEKYRDIARVMGVKVEGMSLEEARNAAVEAVFALNRDVGIPPHLRDVGVRKEDIPALAQAALDDVCTGGNPREATLEDIVELYHTAW
notes: clarified crude lysate
Take B4: the values for the Km in data set [6] (other: NADH as cofactor) and in data set [6] (other: NADPH as cofactor) were 800 µM and 200 µM, respectively.

B5: E. coli KARI Ec_IlvC variant Ec_IlvC^Q110V-his6 (Q110V), SEQ ID NO: 23 (Escherichia coli K-12; Q110V) (protein)
chain: MANYFNTLNLRQQLAQLGKCRFMGRDEFADGASYLQGKKVVIVGCGAQGLNQGLNMRDSGLDISYALRKEAIAEKRASWRKATENGFKVGTYEELIPQADLVINLTPDKVHSDVVRTVQPLMKDGAALGYSHGFNIVEVGEQIRKDITVVMVAPKCPGTEVREEYKRGFGVPTLIAVHPENDPKGEGMAIAKAWAAATGGHRAGVLESSFVAEVKSDLMGEQTILCGMLQAGSLLCFDKLVEEGTDPAYAEKLIQFGWETITEALKQGGITLMMDRLSNPAKLRAYALSEQLKEIMAPLFQKHMDDIISGEFSSGMMADWANDDKKLLTWREETGKTAFETAPQYEGKIGEQEYFDKGVLMIAMVKAGVELAFETMVDSGIIEESAYYESLHELPLIANTIARKRLYEMNVVISDTAEYGNYLFSYACVPLLKPFMAELQPGDLGKAIPEGAVDNGQLRDVNEAIRSHAIEQVGKKLRGYMTDMKRIAVAGLEHHHHHH
B5: the kcat/Km was determined as 24800 M⁻¹ s⁻¹ in data set [7] (other: purified, acetolactate as substrate) and 569000 M⁻¹ s⁻¹ in data set [7] (with NADH).
